The source of these data is PMC3998888.

The experiment has as its target ALG-1(anti) (C. elegans (endogenous in whole animals)). In words: co-IP; ALG-1 immunoprecipitated with a custom ALG-1-specific polyclonal antibody (Anaspec) from whole protein lysate of wild type or alg-1(anti) animals; precipitate probed by Western blot with anti-ALG-1, anti-DCR-1 and anti-AIN-1; signals quantified as ratios to ALG-1 and normalised to wild type. For orientation: A western blot detects proteins with antibodies after separation by electrophoresis.

As to AIN-1 (GW182) (natural protein), the fold decrease in co-precipitated AIN-1 against wild type ALG-1 was found to be 3 fold and the fold decrease in co-precipitated AIN-1 against wild type ALG-1 (average of biological replicates) is 2 fold. With “DCR-1 (Dicer) (from UniProt P34529 1-1910) (enzyme)”, the fold increase in co-precipitated DCR-1 against wild type ALG-1 came out at 4 fold.
